Series [1] deals with the molecule itself.
For series [2], the target named is T1, Mit1 C-terminal domain (1156–1417) (S. pombe, UniProt Q9P793 1156-1417).
T1 sequence (looked up): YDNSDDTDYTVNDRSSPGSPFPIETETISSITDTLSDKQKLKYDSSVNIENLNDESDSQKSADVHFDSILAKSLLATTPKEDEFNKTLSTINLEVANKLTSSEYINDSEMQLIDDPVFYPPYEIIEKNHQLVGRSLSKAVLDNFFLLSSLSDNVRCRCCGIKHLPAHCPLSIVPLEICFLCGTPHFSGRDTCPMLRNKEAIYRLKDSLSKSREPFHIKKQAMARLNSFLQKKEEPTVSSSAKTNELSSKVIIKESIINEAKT
The series is described as follows: pull-down.

B1: Clr3 (aa31–687) (enzyme, S. pombe, UniProt P56523 31-687, looked up)
chain: TNNKPMSGSENTLNNESHEMSQILKKSGLCYDPRMRFHATLSEVDDHPEDPRRVLRVFEAIKKAGYVSNVPSPSDVFLRIPAREATLEELLQVHSQEMYDRVTNTEKMSHEDLANLEKISDSLYYNNESAFCARLACGSAIETCTAVVTGQVKNAFAVVRPPGHHAEPHKPGGFCLFNNVSVTARSMLQRFPDKIKRVLIVDWDIHHGNGTQMAFYDDPNVLYVSLHRYENGRFYPGTNYGCAENCGEGPGLGRTVNIPWSCAGMGDGDYIYAFQRVVMPVAYEFDPDLVIVSCGFDAAAGDHIGQFLLTPAAYAHMTQMLMGLADGKVFISLEGGYNLDSISTSALAVAQSLLGIPPGRLHTTYACPQAVATINHVTKIQSQYWRCMRPKHFDANPKDAHVDRLHDVIRTYQAKKLFEDWKITNMPILRDSVSNVFNNQVLCSSNFFQKDNLLVIVHESPRVLGNGTSETNVLNLNDSLLVDPVSLYVEWAMQQDWGLIDINIPEVVTDGENAPVDILSEVKELCLYVWDNYVELSISKNIFFIGGGKAVHGLVNLASSRNVSDRVKCMVNFLGTEPLVGLKTASEEDLPTWYYRHSLVFVSSSNECWKKAKRAKRRYGRLMQSEHTETSDMMEQHYRAVTQYLLHLLQKARPTSQ
For the molecule B1, the “stoichiometry N” value in series [1] amounted to 2.

B2: Clr1 region between residues 357–500 (domain or fragment, S. pombe, UniProt O74808 357-500, looked up)
chain: PFLTPDNIASSILYSTASFSRSKPDRPRLNLSLELKLMQNELNKGQLKKQFKGDLRNLADWNNLSLVSSKFPSLPITNLRPDGSFLKHRRFNEEIAYNRQTLEKAIKQLDLSPDKVIQLREQNGVAVNGRVCYPTRNKHSEISA
B2: the binding result in series [2] is “binds”.

What is called stoichiometry N is the number of molecules, sites or subunits per partner or assembly.

Source of the values: paper PMC4890606 (Molecular cell, 2016).
